Test results as given in the RNAGym collection of RNA variant scans (doi:10.7554/elife.90254).

B1: LINE1-mini (parent)
chain: GGCAGAGCUCAACACAGCGUGGCAAAGUGGCUGUGGCUAGACUGCC

Variants of: B1
Assay: self-cleavage, relative activity (ratio to wild type); higher = more cleavage; in vitro, sequencing; the parent is a self-cleaving ribozyme
For GGCAGAGCUCAGCACAGCGUGGCAAAGUGGCUGUGGCUAGACUGGC, the self-cleavage was 0.06. GGUAGAGCUCAACACAGCGUGGCAAAGCGGCUGUGGCUAGACUGCC showed a self-cleavage of 0.24. GGCAGAGCUCAACACAGCGUGGCGAAAUGGCUGUGGCUAGACUGCC gave a self-cleavage of 0.98. GGCAGAGCUCAACACUGCGUGGCAAAGUGGCAGUGGCUAGACUGCC gave a self-cleavage of 0.55. GGCAGGGCUCAACACAGCGUGGCAAAGUGGCUGGGGCUAGACUGCC gave a self-cleavage of 0.04. Work on GGCAGAGCCCAACACAGCGUGGCAAGGUGGCUGUGGCUAGACUGCC yielded a self-cleavage of 0.05. UGCAGAGCUCAACACAGCGUGGCAAAGUGCCUGUGGCUAGACUGCC gave a self-cleavage of 0.27. With GGCAGAGCUCAACUCAGCGUGGCAAAGUGGCUAUGGCUAGACUGCC the self-cleavage was 0.08. For GGCAGAGCUCAACACACCGUGGCAAAGUGGCUGUGGCUAGACUUCC, the self-cleavage was 0.07. GGCAGAGCUCAACACAGCGUGGCAAAGUGGCUGUAGCUAGACAGCC showed a self-cleavage of 0.09. With GGCAGAGCUCAACACAGCGUGGUAAAGUGGCUGUGGCUAGACUGAC the self-cleavage was 0.47. In the case of GGCAGAACUCAACACAGCGUGGCAAAGUGGCUGGGGCUAGACUGCC, the self-cleavage is reported as 0.14. Work on GGCAGACCUCAACACAGUGUGGCAAAGUGGCUGUGGCUAGACUGCC yielded a self-cleavage of 0.19. GGCGGAGCUCAACACAGCGUGGCAAAGUGGCUGUGGGUAGACUGCC showed a self-cleavage of 0.07. With GGCAGAUCUCAACACAGCGUGGGAAAGUGGCUGUGGCUAGACUGCC the self-cleavage was 0.08. GGCAGAGCUCAACAUAGCGUGGCAAAGUGGCUGUGGCUAGACUGCU showed a self-cleavage of 0.43. GGCAGAGCUCAACACAGCGUGGCAAAGUGGCUGUGGCUAGGCUGCG showed a self-cleavage of 0.08. For GGCAGAGCUCAACACAGCGUGGCAAAGUGGCUGUGACUAGACUUCC, the self-cleavage was 0.15. For AGCAGAGCCCAACACAGCGUGGCAAAGUGGCUGUGGCUAGACUGCC, the self-cleavage was 0.1. GGCAGAGCUCAACAGAGCGUGGCAAAGUGGCUGUUGCUAGACUGCC showed a self-cleavage of 0.03. Work on GGCAGAGCUCAACACCGCUUGGCAAAGUGGCUGUGGCUAGACUGCC yielded a self-cleavage of 0.08. Work on UGCAGAGCUCAACACAGCGUGGCAAAGUGGCUGUGGCUCGACUGCC yielded a self-cleavage of 0.09. Variant GGCAGAGCUCAACACAGCGUGGCAGAGUGGCUGUGGCUAGAGUGCC has a self-cleavage of 0.05. Work on GGCAGAGCUCAACACAGCGUGGCAAAGUGGCUGAGGCUAGACUGCU yielded a self-cleavage of 0.09. With GGCAGAGCUUAACACAGCGUGGCAAAGUGGCUGUGGCCAGACUGCC the self-cleavage was 0.17. GGCAGAGCUCAGCACAGCGUGGCAACGUGGCUGUGGCUAGACUGCC showed a self-cleavage of 0.03. In the case of GGCAGAGCUUCACACAGCGUGGCAAAGUGGCUGUGGCUAGACUGCC, the self-cleavage is reported as 0.05. GGCAGAGCUCAACACAGCGUGGCAAAGUCGCUGUGUCUAGACUGCC gave a self-cleavage of 0.04. In the case of GGCCGAGCUCAACACAGCGUGGCAAAGUGGCUGGGGCUAGACUGCC, the self-cleavage is reported as 0.02. With GGCAGAUCUCAACACAGCGUGGCAAAGUGGCUCUGGCUAGACUGCC the self-cleavage was 0.15. Variant GGCAGAGCUCAACACAGCGUGACAAAGUGGUUGUGGCUAGACUGCC has a self-cleavage of 0.49. GGCAGAGCUCAACACAGCGUUGCAAAGUGGCUGUGGCUAGACUGAC gave a self-cleavage of 0.68. For GGCAGAUGUCAACACAGCGUGGCAAAGUGGCUGUGGCUAGACUGCC, the self-cleavage was 0.32. With GGCAGAGCUCAACACAGCGUGGCAAGGUGGCUGUGGCAAGACUGCC the self-cleavage was 0.52. For GGCAGAGCACAACACAGCGUGGCAAAGUGGCUGUGGCUCGACUGCC, the self-cleavage was 0.17. Work on GGCAGAGCUCAACACAGCGUGGCAAAUUGGCUGUGGCUAGACAGCC yielded a self-cleavage of 0.17. Variant GGCAGAGCUCAACACAGGGUGCCAAAGUGGCUGUGGCUAGACUGCC has a self-cleavage of 0.12. GGAAGCGCUCAACACAGCGUGGCAAAGUGGCUGUGGCUAGACUGCC gave a self-cleavage of 0.38. GGCAGAGCUCAACACAGCGUUGCAAAGUGGCUGUGGCUAGACUGCU showed a self-cleavage of 1.13. GGCAGAGCGCAACACAGCGUGGCAAAGUGGCUUUGGCUAGACUGCC showed a self-cleavage of 0.08. For GGCAGAGCUCAACACAGCGUGUCAAACUGGCUGUGGCUAGACUGCC, the self-cleavage was 0.57. Variant GGCAGAGCGCAACACAGCGUGGCAAAGUGGCUGUAGCUAGACUGCC has a self-cleavage of 0.11. With GGCAGAGCUCAAGACAGCGUGGCACAGUGGCUGUGGCUAGACUGCC the self-cleavage was 0.18. GGCAGAGCUCAACAGAGCGUGGCAAAGUGGCUGUGACUAGACUGCC gave a self-cleavage of 0.06. For GGCAGAGCUCAACACAGCGUGGCAACGUGGCUGUGGCUAGACUGCA, the self-cleavage was 0.83. With CGGAGAGCUCAACACAGCGUGGCAAAGUGGCUGUGGCUAGACUGCC the self-cleavage was 0.1. For GGCAGAGCUCAACACAACGUGUCAAAGUGGCUGUGGCUAGACUGCC, the self-cleavage was 0.54. GGCAGAGCUCAACACAGCGCGGCAAAGUGGCUGUGGCCAGACUGCC showed a self-cleavage of 0.22. In the case of GGCAGAGGUCAACACAGCGUGGCAAAGUGGCUGAGGCUAGACUGCC, the self-cleavage is reported as 0.05. In the case of GGCAGCGCUCAACACAGCGUGUCAAAGUGGCUGUGGCUAGACUGCC, the self-cleavage is reported as 0.57. With GGCCGAGCUCAACACAGCGUGGCAAAGUGGCUGUGGCUAGACAGCC the self-cleavage was 0.06. UGCAGAGCUCAACACAGCGUGGCAAAGUGGCUGUGGCUAGACUGGC gave a self-cleavage of 0.1. In the case of GGCCGAGCUCAACACAGCGUGGCAAAGUGGCUGAGGCUAGACUGCC, the self-cleavage is reported as 0. GGCAGUGCUCAACACAGAGUGGCAAAGUGGCUGUGGCUAGACUGCC showed a self-cleavage of 0.52. For GGCAGAGCUCAACACUGCGUCGCAAAGUGGCUGUGGCUAGACUGCC, the self-cleavage was 0.27. With GGCAGAGCUCAGGACAGCGUGGCAAAGUGGCUGUGGCUAGACUGCC the self-cleavage was 0.04.
